This is an account of results in patent US8106168B2, “Metalloproteinase binding proteins” (Dyax Corp., priority 2005, dated 2012).

Assay [1] deals with MMP-24 (Homo sapiens, UniProt Q9Y5R2). The assay is described as follows: Cross-reactivity of Fabs with MMP-24 (Example 9). The format is biochemical. On the set-up: key to MMP-24 (cross-reactivity, class symbol): X: Do not inhibit MMP-16 or MMP-24 at [I] = 100 nM level; Y: partially inhibit at [I] = 100 nM level. Conditions: Fab, 100 nM final inhibitor concentration; 5 nM MMP-24. The protocol:
(§1) For the studies summarized in Table 15, 1 μM of anti-MMP-14 Fab/IgG (100 nM final inhibitor concentration) were incubated with 5 nM of MMP-16 or 5 nM of MMP-24 for 30 minutes at 30° C., 10 μM of substrate was added, and the MMP-16 activity was measured.

Assay [2] has as its target T1, MMP-16 (Homo sapiens, UniProt P51512). The assay is described as follows: Cross-reactivity of Fabs with MMP-16 (Example 9). The format is biochemical. On the set-up: key: X: Do not inhibit MMP-16 or MMP-24 at [I] = 100 nM level; Y: partially inhibit at [I] = 100 nM level. To be noted: Fab, 100 nM final inhibitor concentration, 5 nM MMP-16. Here is the method:
as §1

Assay [3] concerns the target T2, MMP-14 (Homo sapiens, UniProt P50281). Description: IC50 for MMP-14 inhibition by Fabs and IgGs. The class given is biochemical. To be noted: Fab. The method in brief: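 Cleavage of the fluorogenic substrate Mca-Pro-Leu-Ala-Cys(Mob)-Trp-Ala-Arg-Dap(Dnp)-NH2 was measured without and with increasing Fab or IgG concentrations. IC50 is the binding-protein concentration that inhibits 50% of MMP-14 activity.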

The target in assay [4] is T2, MMP-14. The assay is described as follows: Selection and phage ELISA screening of anti-MMP-14 Fabs. The format is binding. To be noted: Fab from FAB310 phage display library. Put shortly:
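Phage ELISA screened 95 clones from each of rounds 2 and 3 against biotinylated MMP-14 (1 μg/ml) captured on streptavidin, in TRIS/CaCl2/NaCl pH 7.5. The clones came from Fab library selections on biotinylated MMP-14, either free or TIMP-2-complexed (500 nM round 1, 100 nM later rounds). Elution used 2.5 μM TIMP-2 followed by TEA.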
Background: In an ELISA, binding on a coated surface is turned into a signal by an enzyme label.

Assay [5] addresses T1, MMP-16. Description: Cross-reactivity of anti-MMP-14 IgGs, enzymatic activity: MMP-16. The format is biochemical. Conditions: 1 μM anti-MMP-14 IgG. The protocol: The cross-reactivity of exemplary anti-MMP-14 IgGs and Fabs with other human MMPs and TACE (TNF-alpha converting enzyme) was examined. MMP and TACE enzymatic activity was monitored in the absence and presence of 1 μM anti-MMP-14 IgG antibody. Inhibition (Y) of activity ranged from approximately 50-80% of the reaction rate observed in the absence of antibody. “X” indicates no inhibition was observed. Cross-reactivity was not determined for MMP-17 because protein activity could not be detected.
For the studies summarized in Table 12, six anti-MMP-14 IgGs were selected for cross-reactivity testings: M0043-G02, M0040-A06, M0037-D01, M037-C09, M0038-F01, M0033-H07.

The target of assay [6] is T1, MMP-16. The assay is described as follows: Cross-reactivity of Fabs and IgGs with MMP-16 (Example 8). Conditions: 5 nM MMP16, 30 minutes at 30° C., 10 μM substrate. The class given is biochemical. Set-up: key to MMP-16 (cross-reactivity, class symbol): X: Does not inhibit MMP-16 at [I] = 100 nM level. Here is the method:
For the studies summarized in Tables 13 and 14, 100 nM anti-MMP-14 Fab/IgG were incubated with 5 nM MMP16 for 30 minutes at 30° C., 10 μM of substrate was added, and the MMP-16 activity was measured.

T1 sequence (P51512 120-607): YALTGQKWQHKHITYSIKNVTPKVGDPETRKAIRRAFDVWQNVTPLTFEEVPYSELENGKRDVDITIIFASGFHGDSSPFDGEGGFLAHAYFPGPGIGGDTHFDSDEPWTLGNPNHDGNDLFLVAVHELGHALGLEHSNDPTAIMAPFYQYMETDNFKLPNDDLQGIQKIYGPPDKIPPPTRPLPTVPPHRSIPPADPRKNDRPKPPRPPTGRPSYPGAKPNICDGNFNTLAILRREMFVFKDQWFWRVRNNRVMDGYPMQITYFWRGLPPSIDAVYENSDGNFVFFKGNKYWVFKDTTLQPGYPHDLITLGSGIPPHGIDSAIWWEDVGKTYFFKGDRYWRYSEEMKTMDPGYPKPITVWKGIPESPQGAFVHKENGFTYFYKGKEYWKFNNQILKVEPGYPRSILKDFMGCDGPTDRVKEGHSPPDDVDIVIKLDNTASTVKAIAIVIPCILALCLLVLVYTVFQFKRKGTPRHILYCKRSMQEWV
Chain of MMP-24 (Q9Y5R2 156-645): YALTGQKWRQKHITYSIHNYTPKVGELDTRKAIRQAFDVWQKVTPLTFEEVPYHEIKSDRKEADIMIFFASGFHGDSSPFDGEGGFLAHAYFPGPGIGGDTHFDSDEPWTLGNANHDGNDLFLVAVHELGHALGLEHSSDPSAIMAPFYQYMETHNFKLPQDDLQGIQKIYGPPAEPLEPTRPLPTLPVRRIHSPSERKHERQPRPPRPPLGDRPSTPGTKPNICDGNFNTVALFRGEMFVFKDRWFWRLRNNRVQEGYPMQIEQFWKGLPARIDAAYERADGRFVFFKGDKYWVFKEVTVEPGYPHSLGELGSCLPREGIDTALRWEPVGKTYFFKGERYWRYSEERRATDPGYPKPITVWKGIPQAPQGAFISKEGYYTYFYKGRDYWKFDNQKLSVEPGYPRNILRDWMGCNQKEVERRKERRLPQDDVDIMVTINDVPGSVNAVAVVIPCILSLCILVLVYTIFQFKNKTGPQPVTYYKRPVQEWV

B1: M0038-F01: human antibody (Fab, IgG) that binds and inhibits MMP-14; HC SEQ ID NO: 156, LC SEQ ID NO: 157 (antibody, V domains shown)
VH: EVQLLESGGGLVQPGGSLRLSCAASGFTFSLYSMNWVRQAPGKGLEWVSSIYSSGGSTLYADSVKGRFTISRDNSKNTLYLQMNSLRAEDTAVYYCARGRAFDIWGQGTMVTVSS
VL: QDIQMTQSPSSLSAFVGDKVTITCRASQSVGTYLNWYQQKAGKAPELLIYATSNLRSGVPSRFSGSGSGTDFTLTINTLQPEDFATYYCQQSYSIPRFTFGPGTKVDIK
modifications: Synthetically generated peptide
Regarding B1, the “MMP-24 (cross-reactivity, class symbol)” value in assay [1] is “X”. For the same molecule, the “MMP-16 (cross-reactivity, class symbol)” value in assay [2], in assay [6] (Fab 100 nM) and in assay [6] (IgG 100 nM) was “X” each time. The “bind to and inhibit human MMP-14” value in assay [3] was “bind to and inhibit human MMP-14”. Besides, the “bind to human MMP-14” value in assay [4] is “bind to human MMP-14”. Also, the “Cross reactivity: inhibition of MMP-16 activity” value (“Cross reactivity: inhibition” for short) in assay [5] is reported as “Y (Inhibition (Y) of activity ranged from approximately 50-80% of the reaction rate observed in the absence of antibody)”.

B2: M0043-G02: human antibody (Fab, IgG) that binds and inhibits MMP-14; HC SEQ ID NO: 166, LC SEQ ID NO: 167 (antibody, V domains shown)
VH: EVQLLESGGGLVQPGGSLRLSCAASGFTFSWYPMFWVRQAPGKGLEWVSGIYSSGGPTDYADSVKGRFTISRDNSKNTLYLQMNSLRAEDTAVYYCAKDTLGRYYDFWSGYSYGMDVWGQGTTVTVSS
VL: QDIQMTQSPGTLSLSPGERATLSCRASQSVSSSYLAWYQQKPGQAPRLLIYGASSRATGIPDRFSGSGSGTDFTLTISRLEPEDFAVYYCQSGVTFGGGTKVEIK
modifications: Synthetically generated peptide
Consider B2, for which the MMP-24 inhibition entry in assay [1] is recorded as “Y 74% inhibition”. Moreover, in assay [2], the “MMP-16 (cross-reactivity, class symbol)” value was “X”. Moreover, the “bind to and inhibit human MMP-14” value in assay [3] was “bind to and inhibit human MMP-14”. The “bind to human MMP-14” value in assay [4] was “bind to human MMP-14”. Moreover, the “Cross reactivity: inhibition” value in assay [5] is recorded as “Y (Inhibition (Y) of activity ranged from approximately 50-80% of the reaction rate observed in the absence of antibody)”. The results for the MMP-16 inhibition result in assay [6] (Fab 100 nM) and in assay [6] (IgG 100 nM) were “Y 70% inhibition” and “Y 94% inhibition”, respectively.

B3: M0040-A06: human antibody (Fab, IgG) that binds and inhibits MMP-14; HC SEQ ID NO: 162, LC SEQ ID NO: 163 (antibody, V domains shown)
VH: EVQLLESGGGLVQPGGSLRLSCAASGFTFSYYGMYWVRQAPGKGLEWVSSISSSGGYTDYADSVKGRFTISRDNSKNTLYLQMNSLRAEDTAVYYCARRIKYYDIEGEGAFDIWGQGTMVTVSS
VL: QDIVMTQTPPSLPVNPGEPASISCRSSQSLLHRNGYNYLDWYLQKPGQSPQLLIHLGSYRASGVPDRFSGSGSGTDFTLKISRVEAEDVGVYYCMQPLQTPFTFGPGTKVDIK
modifications: Synthetically generated peptide
As to B3, the MMP-24 inhibition entry in assay [1] is given as “Y 65% inhibition”. Moreover, the “MMP-16 (cross-reactivity, class symbol)” value in assay [2], in assay [6] (Fab 100 nM) and in assay [6] (IgG 100 nM) was “X” each time. Moreover, in assay [3], the “bind to and inhibit human MMP-14” value was “bind to and inhibit human MMP-14”. In addition, in assay [4], the “bind to human MMP-14” value is on record as “bind to human MMP-14”. Besides, in assay [5], the “Cross reactivity: inhibition” value is “Y (Inhibition (Y) of activity ranged from approximately 50-80% of the reaction rate observed in the absence of antibody)”.
